Patent US20120316071A1 (published 2012)
Blank lines part the entries; values can stand above or below the binder they belong to.

Tests used:
[1] = biological target: T1, Recombinant Human DLL4 (R&D Systems Cat#1506-D4/CF) (human, UniProt Q9NR61 27-524); experiment: Multispot ECL (MSD) titration; antigen spotted on plate; Fab 24.5 nM; blank spot 149
T1 construct: Bought recombinant protein; also called delta-like protein 4; rHuman DLL4

[2] = biological target: T2, rHuman IGF-1 sR (IGF-1 sR), CF (R&D Systems Cat#391-GR) (human, UniProt P08069 31-932); experiment: as above
T2 construct: Bought soluble receptor; also called insulin-like growth factor-1 soluble receptor

[3] = biological target: T3, rHuman ErbB2/Fc Chimera, CF (R&D Systems Cat#1129-ER) (human, UniProt P04626 23-652); experiment: as above
T3 construct: Bought Fc chimera; also called human epidermal growth factor 2 receptor; Fc part of the bought chimera not given

[4] = biological target: T4, rHuman P-Cadherin/Fc Chimera, CF (R&D Systems Cat#861-PC) (human, UniProt P22223 108-654); experiment: as above
T4 construct: Bought Fc chimera; Fc part of the bought chimera not given

[5] = biological target: T5, rHuman Notch-1/Fc Chimera, CF (R&D Systems Cat#3647-TK) (human, UniProt P46531 19-526); experiment: as above
T5 construct: Bought Fc chimera; Fc part of the bought chimera not given

[6] = biological target: T6, rHuman HGF R/c-MET/Fc Chimera, CF (R&D Systems Cat#358-MT/CF) (human, UniProt P08581 25-932); experiment: as above
T6 construct: Bought Fc chimera; also called HGF R/Fc; hepatocyte growth factor receptor; Fc part of the bought chimera not given
T6 sequence (P08581 25-932, change not shown): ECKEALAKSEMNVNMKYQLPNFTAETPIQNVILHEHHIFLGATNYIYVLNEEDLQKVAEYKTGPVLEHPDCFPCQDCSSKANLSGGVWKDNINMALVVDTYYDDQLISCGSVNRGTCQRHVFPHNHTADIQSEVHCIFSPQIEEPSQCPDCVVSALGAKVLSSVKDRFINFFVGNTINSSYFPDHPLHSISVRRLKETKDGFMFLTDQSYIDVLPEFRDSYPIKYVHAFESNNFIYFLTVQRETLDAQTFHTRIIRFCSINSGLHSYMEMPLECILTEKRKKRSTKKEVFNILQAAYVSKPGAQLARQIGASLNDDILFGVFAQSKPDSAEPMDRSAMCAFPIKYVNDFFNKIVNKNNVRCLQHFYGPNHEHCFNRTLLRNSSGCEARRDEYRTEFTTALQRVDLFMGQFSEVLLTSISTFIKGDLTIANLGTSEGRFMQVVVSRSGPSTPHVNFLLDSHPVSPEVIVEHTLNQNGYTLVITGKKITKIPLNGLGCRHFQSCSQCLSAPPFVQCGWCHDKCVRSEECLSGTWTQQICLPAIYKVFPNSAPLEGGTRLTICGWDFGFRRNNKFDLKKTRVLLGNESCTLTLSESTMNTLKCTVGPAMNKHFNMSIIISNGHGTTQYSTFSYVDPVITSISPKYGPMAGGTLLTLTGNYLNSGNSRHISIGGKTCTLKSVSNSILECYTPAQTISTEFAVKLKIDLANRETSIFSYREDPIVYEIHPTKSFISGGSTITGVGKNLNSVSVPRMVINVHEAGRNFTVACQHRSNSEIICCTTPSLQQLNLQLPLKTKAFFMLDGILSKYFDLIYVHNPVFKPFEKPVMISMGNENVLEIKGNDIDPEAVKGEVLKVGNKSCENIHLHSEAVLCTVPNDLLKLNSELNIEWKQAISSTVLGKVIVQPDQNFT

[7] = biological target: T7, rHuman Erythropoietin R/Fc Chimera, CF (R&D Systems Cat#963-ER) (human, UniProt P19235 25-250); experiment: as above
T7 construct: Bought Fc chimera; also called EPO R/Fc; EPO R; Fc part of the bought chimera not given
T7 sequence (looked up): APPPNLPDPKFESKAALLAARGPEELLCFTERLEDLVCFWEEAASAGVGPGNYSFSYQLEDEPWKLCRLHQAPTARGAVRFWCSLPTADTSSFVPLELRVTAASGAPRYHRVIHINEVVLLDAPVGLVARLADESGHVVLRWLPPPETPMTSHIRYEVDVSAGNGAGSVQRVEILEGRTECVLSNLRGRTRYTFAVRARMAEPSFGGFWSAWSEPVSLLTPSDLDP

[8] = biological target: T8, rHuman CD44/Fc Chimera, CF (R&D Systems Cat#3660-CD) (human, UniProt P16070 21-220); experiment: as above
T8 construct: Bought Fc chimera; Fc part of the bought chimera not given

[9] = biological target: T9, rHuman P-Cadherin/Fc Chimera, CF (R&D Systems Cat#861-PC) (human, UniProt P22223 108-654); experiment: MSD Multispot ECL, antigen spotted on plate, Fab at 30 nM; blank spot 213
T9 construct: Bought Fc chimera; Fc part of the bought chimera not given

[10] = biological target: T10, rHuman Erythropoietin R/Fc Chimera, CF (R&D Systems Cat#963-ER) (human, UniProt P19235 25-250); experiment: as above
T10 construct: Bought Fc chimera; also called EPO R/Fc; Epo R; Fc part of the bought chimera not given
T10 sequence (looked up): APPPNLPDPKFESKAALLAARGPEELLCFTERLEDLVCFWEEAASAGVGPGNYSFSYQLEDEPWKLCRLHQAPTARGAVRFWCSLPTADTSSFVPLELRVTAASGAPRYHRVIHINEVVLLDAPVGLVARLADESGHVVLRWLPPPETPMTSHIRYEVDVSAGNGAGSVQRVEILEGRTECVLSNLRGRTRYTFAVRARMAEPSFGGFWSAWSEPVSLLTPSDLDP

[11] = biological target: T11, rHuman Notch-1/Fc Chimera, CF (R&D Systems Cat#3647-TK) (human, UniProt P46531 19-526); experiment: as above
T11 construct: Bought Fc chimera; Fc part of the bought chimera not given

[12] = biological target: T12, rHuman CD44/Fc Chimera, CF (R&D Systems Cat#3660-CD) (human, UniProt P16070 21-220); experiment: as above
T12 construct: Bought Fc chimera; Fc part of the bought chimera not given

[13] = biological target: T13, rHuman CD44/Fc Chimera, CF (R&D Systems Cat#3660-CD) (human, UniProt P16070 21-220); experiment: Multispot ECL (MSD) assay, antigen spotted on plate, Fab at 0.0624 µM; blank spot 960
T13 construct: Bought recombinant protein; Fc part of the bought chimera not given

[14] = biological target: T14, rHuman P-Cadherin/Fc Chimera, CF (R&D Systems Cat#861-PC) (human, UniProt P22223 108-654); experiment: as above
T14 construct: Bought recombinant protein; Fc part of the bought chimera not given

[15] = biological target: T15, rHuman EGF R/Fc Chimera, CF (R&D Systems Cat#344-ER) (human, UniProt P00533 25-645); experiment: as above
T15 construct: Bought recombinant protein; also called epidermal growth factor receptor (EGF R); Fc part of the bought chimera not given

[16] = biological target: T16, rHuman Erythropoietin R/Fc Chimera, CF (R&D Systems Cat#963-ER) (human, UniProt P19235 25-250); experiment: as above
T16 construct: Bought recombinant protein; also called EPO R/Fc; Epo R; Fc part of the bought chimera not given
T16 sequence (looked up): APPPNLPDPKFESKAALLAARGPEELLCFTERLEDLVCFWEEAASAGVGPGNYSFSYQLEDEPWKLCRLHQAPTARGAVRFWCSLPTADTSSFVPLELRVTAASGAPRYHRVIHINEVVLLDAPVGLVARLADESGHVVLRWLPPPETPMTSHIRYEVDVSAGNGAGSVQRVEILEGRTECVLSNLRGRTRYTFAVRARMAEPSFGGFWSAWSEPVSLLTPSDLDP

[17] = biological target: T17, Recombinant Human DLL4 (R&D Systems Cat#1506-D4/CF) (human, UniProt Q9NR61 27-524); experiment: as above
T17 construct: Bought recombinant protein; also called delta-like protein 4; rHuman DLL4

[18] = biological target: T18, rHuman Notch-1/Fc Chimera, CF (R&D Systems Cat#3647-TK) (human, UniProt P46531 19-526); experiment: as above
T18 construct: Bought recombinant protein; Fc part of the bought chimera not given

ECL signal [1]: 339 | ECL signal [2]: 239 | ECL signal [3]: 241 | ECL signal [4]: 257 | ECL signal [5]: 434 | ECL signal [6]: 211 | ECL signal [7]: 4530 | ECL signal [8]: 267
B1: Fab VH1-46_IGHD3-10*01_IGHJ4*01 & O1_IGKJ1*01 (Fab, V domains shown)
VH: QVQLVQSGAEVKKPGASVKVSCKASGYTFTSYYMHWVRQAPGQGLEWMGIINPSGGSTSYAQKFQGRVTMTRDTSTSTVYMELSSLRSEDTAVYYCAREYYYGSGSYYNDYFDYWGQGTLVTVSS
VL: DIVMTQTPLSLPVTPGEPASISCRSSQSLLDSDDGNTYLDWYLQKPGQSPQLLIYTLSYRASGVPDRFSGSGSGTDFTLKISRVEAEDVGVYYCMQRIEFPSWTFGQGTKVEIKR
notes: Germline library Fab expressed in E. coli; VH was cloned into Plasmid A (CH1 constant region, His6 and Flag tags); The kappa VL was cloned into Plasmid C (kappa CL)

ECL signal [9]: 440 | ECL signal [10]: 325 | ECL signal [11]: 425 | ECL signal [12]: 484
B2: Fab VH6-1_IGHD3-3*01_IGHJ4*01 & V4-3_IGLJ4*01 (Fab, V domains shown)
VH: QVQLQQSGPGLVKPSQTLSLTCAISGDSVSSNSAAWNWIRQSPSRGLEWLGRTYYRSKWYNDYAVSVKSRITINPDTSKNQFSLQLNSVTPEDTAVYYCAREYYDFWSGYYTDYFDYWGQGTLVTVSS
VL: QPVLTQPTSLSASPGASARLTCTLRSGINLGSYRIFWYQQKPESPPRYLLSYYSDSSKHQGSGVPSRFSGSKDASSNAGILVISGLQSEDEADYYCMIWHSSASFVFGGGTQLIIL
notes: Tested as a purified germline Fab made in E. coli; The VH was cloned into plasmid A (CH1 constant region, His6 and Flag tags) and the lambda VL into plasmid E (lambda CL)

ECL signal [13]: 2110 | ECL signal [14]: 4230 | ECL signal [15]: 2420 | ECL signal [16]: 2680 | ECL signal [17]: 2580 | ECL signal [18]: 2350
B3: Fab VH1-46_IGHD7-27*01_IGHJ2*01 & L6_IGKJ1*01 (Fab, V domains shown)
VH: QVQLVQSGAEVKKPGASVKVSCKASGYTFTSYYMHWVRQAPGQGLEWMGIINPSGGSTSYAQKFQGRVTMTRDTSTSTVYMELSSLRSEDTAVYYCARANWGYWYFDLWGRGTLVTVSS
VL: not shown
notes: Germline Fab made in E. coli; VH was cloned in Plasmid A (CH1 constant region, His6 and Flag tags) and the kappa VL in Plasmid C (kappa CL); Only the variable domains are tied to this Fab by name
